# Paper doi:10.1101/2025.10.16.681758 (bioRxiv, 2025)
# B1: aCcr2 (natural protein, Saccharolobus islandicus REY15A, UniProt F0NEU4 1-57, looked up)
# chain: MVRVITFKAEEELLVKLDLFALNSRMSRSEIIRMAIEKYLEEAAGGIRTRDRRLSRQ
# B2: SiRe_0131 (natural protein, Saccharolobus islandicus REY15A, UniProt F0NG80 1-74, looked up)
# chain: MEKIVKVNDTTYILEDERSVVITFKLEENILSMVDEIVKKLGYDYRSDFIRDAIEKYINYLKSSSNNSKMNINE
# B3: aCcr1 (natural protein, Saccharolobus islandicus REY15A, UniProt F0NBE5 1-58, looked up)
# chain: MRVVTFKVEEDLLELLDRYAIKYGLNRSEAIRKAIEKMVRDELSKERVPVARVEKIKL
# Key:
# [1] = tested on: aCcr3 (Saccharolobus islandicus REY15A); experiment: EMSA
# [2] = tested on: aCcr1 (Saccharolobus islandicus REY15A); experiment: EMSA
# [3] = tested on: aCcr2 (Saccharolobus islandicus REY15A); experiment: EMSA
# SEC = target: the molecule itself; experiment: SEC
Molecule,stoichiometry N (SEC),other results
PcdvA,,Kd [1]: 36 nM; Kd [2]: 93.5 nM; Kd [3]: 245 nM
B1,2,
B2,2,
"MRKVVSVRLKEDVLRDVDIYTRKLGLNSRTEFIKQAIEFYIKSKS (natural protein, Saccharolobus islandicus REY15A, UniProt F0NI75 1-45, looked up) [SiRe_1373]",2,
B3,2,
"MKIITVKLPEQFLEAIDELVNTGRYGSRSEVIRAAIGDFIRKELWVTTEE (natural protein, Saccharolobus islandicus REY15A, UniProt F0NFD7 1-50, looked up) [aCcr3]",2,
